{"source": "patent US20090074795A1", "about": "“Methods for addressing ocular diseases through interference with the wnt signaling pathway” (priority 2007, published 2009)", "molecules": {"B1": {"name": "DKK1: Purified Dickkopf-1 protein (R&D System), specific inhibitor of the wnt pathway binding LRP5/6; mouse protein in mice, human in HUVEC (protein, UniProt O54908 32-272; O54908 32-272, looked up)", "Dickkopf-related protein 1 1": "TLNSVLINSNAIKNLPPPLGGAGGQPGSAVSVAPGVLYEGGNKYQTLDNYQPYPCAEDEECGSDEYCSSPSRGAAGVGGVQICLACRKRRKRCMRHAMCCPGNYCKNGICMPSDHSHFPRGEIEESIIENLGNDHNAAAGDGYPRRTTLTSKIYHTKGQEGSVCLRSSDCAAGLCCARHFWSKICKPVLKEGQVCTKHKRKGSHGLEIFQRCYCGEGLACRIQKDHHQASNSSRLHTCQRH", "Dickkopf-related protein 1 2": "B1 Dickkopf-related protein 1 1", "modifications": "mouse protein in mice, human in HUVEC"}}, "key": {"[1]": {"test_system": "bovine retinal capillary endothelial cells (BRCEC)", "test": "Intracellular ROS generation assay in BRCEC", "type": "cell-based", "details": "DKK1 6.25-100 nM, 2 h, CM-H2DCFDA", "procedure": "A primary culture of bovine retinal capillary endothelial cells (BRCEC) were exposed to 30 mM glucose or TNF-α in the absence or presence of various concentrations of DKK1 (6.25-100 nM) for 2 h. Aminoguanidine was used as a positive control as it is a known inhibitor of ROS generation.\nAccording to embodiments of experimental data shown in FIG. 14, BRCEC were exposed to 30 mM glucose or 1 μg/ml TNF-α in the absence or presence of various concentrations of DKK1 (6.25-100 nM) for 2 h, 10 μM aminoguanidine (AG) was used as positive control. Intracellular ROS generation was measured using CM-H2DCFDA, and expressed as fluorescent unit per well (means±SD, n=3)."}, "HUVEC": {"test_system": "HUVEC", "test": "DKK1 on VEGF over-expression in HUVEC transfected with VLDLR siRNA", "type": "cell-based", "details": "10 μg/ml human DKK1, 24 hours, ELISA and RT-PCR, vs BSA", "procedure": "The regulatory roles of VLDLR and the wnt pathway in VEGF expression in cultured endothelial cells was also investigated.\nVldlr^−/− mice received a subretinal injection of 5 μg purified mouse DKK1 into the right eyes, and the same amount BSA into the left eyes. According to embodiments shown in FIG. 9A, The eyecups were dissected 24 h following the injection for the following analyses, phosphorylated β-catenin and VEGF levels were measured by Western blot analysis of a representative mouse eyecup using the anti-phosphorylated β-catenin and anti-VEGF antibodies, respectively. According to embodiments shown in FIG. 9B, VEGF protein levels in Vldlr^−/− eyecups were measured using ELISA. According to embodiments shown in FIG. 9C, VEGF mRNA levels in the Vldlr^−/− eyecups were measured using quantitative real-time RT-PCR. Values are mean±SD (n=4). According to embodiments shown in FIGS. 9D-9G, Vldlr^−/− mice were injected with 5 μg/eye BSA into the subretinal space of the left eye (FIGS. 9D and 9F) and the same amount of DKK1 into the right eye (FIGS. 9E and 9G). […] VEGF protein was measured in the culture medium by ELISA (FIG. 9H) and the VEGF mRNA measured in the cells by real-time RT-PCR, normalized by 18s RNA and expressed as arbitrary unit (mean±SD, n=3) (FIG. 9I), 24 hours after the addition of DKK1. […]"}, "OIR rats": {"test_system": "OIR rats", "test": "Retinal NV by fluorescein angiography in OIR rats", "type": "in vivo, rat", "details": "3 μl of 1 μg/μl intravitreal at P15, fluorescein angiography at P18, vs BSA", "procedure": "To determine the anti-angiogenic effect of DKK1 on retinal NV, DKK1 was injected (3 μl of 1 μg/μl DKK1) into the vitreous of the OIR rats at P15. At the time, NV had partially formed in the OIR rats at P15. The rats were then maintained in normoxia for 3 days, and then the retinal NV was examined using fluorescein angiography on retinal whole mounts at P18.\nAccording to embodiments of experimental data and as shown in FIGS. 19A-19D, the OIR model was generated by exposure of BN rats to 75% oxygen for 5 days (P7-P12). At age of P15, OIR BN rats received a single intravitreal injection of DKK1 into the right eye and the same amount of BSA into the left eye. At P18, retinal vasculature was visualized using fluorescein angiography on the whole-mounted retinas from the left eye injected with BSA (FIGS. 19A and 19B) and the right eyes injected with DKK1 (FIGS. 19C and 19D) by angiography at P18.\nFluorescein Angiography: Angiograms were performed using intracardiac injection of 10 mg/ml fluorescein isothiocyanate-conjugated high molecular weight dextran (Sigma, FD-2000S) in deeply anesthetized mice. Eyes were dissected and fixed with 4% paraformaldehyde in Hanks' balanced saline prepared immediately before use for overnight at 4° C., and retinas were flat-mounted in Fluoromount-G."}, "STZ-diabetic rats": {"test_system": "STZ-diabetic rats", "test": "Retinal ICAM-1 (sICAM-1 ELISA) after intravitreal DKK1 in STZ-diabetic rats", "type": "in vivo, rat", "details": "different doses intravitreal, STZ-diabetic rats 16 weeks after onset, 2 days after injection, vs BSA", "procedure": "To determine the role of wnt pathway in retinal inflammation in diabetic retinopathy, different doses of purified DKK1, a specific inhibitor of the wnt pathway, was injected into the vitreous of the right eye of STZ-diabetic rats. As shown by ELISA, diabetes induced over-expression of ICAM-1 in the retina.\nAccording to embodiments of experimental data shown in FIG. 13, different doses of purified DKK1 were injected intravitrealy into the right eye of STZ-diabetic rats at 16 weeks following the onset of diabetes, and the same amounts of BSA into the left eye for control. Soluble ICAM-1 was measured at 2 days after the injection using the sICAM-1 ELISA kit, normalized by total protein concentrations and expressed as ng.\nIntravitreal injection: All solutions will be sterilized by filtration and assessed for endotoxin. Animals will be anesthetized, and compounds will be injected into the vitreous of the one eye through the pars plana using a Hamilton syringe. The left eye will receive the same volume of vehicle and will be used as the control. Following injection, the animals will receive equal amounts of topical antibiotic ointment on both eyes. The animals will then be kept in normoxic conditions until the necessary time point for evaluation"}}, "data": [{"molecule": "B1", "values": [{"measurement": "ROS generation induced by TNF-α", "setting": "[1]; 1 μg/ml TNF-α", "result": "blocked the ROS generation"}, {"measurement": "ROS generation induced by high glucose", "setting": "[1]; 30 mM glucose", "result": "blocked the ROS generation"}, {"measurement": "VEGF over-expression induced by the VLDLR siRNA", "setting": "HUVEC", "result": "blocked the VEGF over-expression"}, {"measurement": "retinal NV areas", "setting": "OIR rats", "result": "decreased retinal NV areas"}, {"measurement": "ICAM-1 over-expression in the retina", "setting": "STZ-diabetic rats", "result": "inhibited the ICAM-1 over-expression in a dose-dependent manner"}]}]}
